# Laboratory results from patent publication US20210253725A1 (BIONTECH, published 2021).
# T1: CD27 protein (His-tagged, Sino Biological Inc. 10039-H08B1) (human, UniProt P26842 20-192)
# T1 construct: bought; coated onto ELISA plates; also called human CD27; recombinant protein; not shown: His tag
# T1 sequence (looked up): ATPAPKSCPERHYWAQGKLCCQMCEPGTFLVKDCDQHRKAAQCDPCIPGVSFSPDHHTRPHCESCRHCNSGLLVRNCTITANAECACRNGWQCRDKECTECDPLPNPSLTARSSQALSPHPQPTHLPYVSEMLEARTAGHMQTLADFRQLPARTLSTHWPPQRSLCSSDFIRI
# T2: CD27 expressed on the cell surface (HT1080_CD27 cells) (human, UniProt P26842 20-260)
# T2 sequence (looked up): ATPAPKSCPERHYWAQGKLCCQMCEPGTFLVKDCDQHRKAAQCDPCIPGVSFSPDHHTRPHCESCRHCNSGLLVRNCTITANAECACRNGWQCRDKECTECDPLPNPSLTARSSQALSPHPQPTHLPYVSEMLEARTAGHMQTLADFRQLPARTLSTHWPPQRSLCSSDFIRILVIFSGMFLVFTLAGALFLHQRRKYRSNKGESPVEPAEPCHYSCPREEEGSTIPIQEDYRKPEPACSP
# Assays:
# [1] = molecular target: T1, CD27 protein (His-tagged, Sino …); experiment: ELISA on coated His-tagged CD27
# [2] = molecular target: T2, CD27 expressed on the cell surface …; experiment: cell-based or functional assay
# [3] = molecular target: T2, CD27 expressed on the cell surface …; experiment: cellular binding assay, HT1080_CD27 cells
# Note: test concentration or dose not given here.
ELISA [abs. corr.] [1] [abs. corr.],"IL-8, cross-linked by F(ab')2 fragment [abs. corr.] [2] [abs. corr.]",IL-8 [abs. corr.] [2] [abs. corr.],Cellular binding assay [RFU] [3] [RFU],Binder
3.47,1.22,0.107,283,"P018.S.07.A.H02 (antibody, V domains shown, V regions on human Ig constant parts; also called AB27_131) VH: QEQLVESGGGLVQPEGSLTLTCKASGFDFSSDAMCWVRQAPGKGLEWIACIYVGSVGSSWYASWAKGRFTISKSSSTTVTLQVTSLTAADTATYFCARGENIAYFTFWGPGTLVTVSS VL: DIMMTQTPASVSAAVGGTVTIKCQASQSINSWLSWYQQKPGQPPKLLIYKASTLASGVPSRFEGSGSGTEFTLTISDLESADAATYYCQGYYYYSSSNFASNAFGGGTEVVVK"
3.44,1.03,0.408,379,"P018.S.07.A.A05 (antibody, V domains shown, V regions on human Ig constant parts; also called AB27_114) VH: QEHLEESGGDLVKPGASLTLTCKASGFDLSINVMCWVRQAPGKGPEWIVCIDNGDGSTYYASWVNGRFTISKTSSTTVTLQMTSLTAADTATYFCARPGTFTYGGNTYPGSFVLWGPGTLVTVSS VL: AFELTQTPSSVEAAVGGTVTINCQASQSISNALAWYQQKPGQPPKLLIYTASNLASGVPSRFKGSGSGTQFTLTISDLESADAATYYCQNYYVNIIGIGFGGGTEVVVK"
3.42,1.12,-0.001,394,"P018.S.08.A.D01 (antibody, V domains shown, V regions on human Ig constant parts; also called AB27_137) VH: QSVEESGGRLVMPGTPLTLTCTVSGFSLSTYVMGWVRQAPGKGLECIGVIYGGGTIWYASWAKGRFTISKTSTTMDLQITSPTTEDTATYFCARDGSSSGDPGFNLWGQGTLVTVSS VL: DIVMTQTPASVSAAVGGTVTINCQASQSISNWVAWYQQKPGQPPKRLIYKASTLASGVPSRFKGSGSGTEFTLTISDLESADAATYYCQSTGSTAYGRAFGGGTEVVVR"
3.42,1.41,0.203,295,"P018.S.07.A.B05 (antibody, V domains shown, V regions on human Ig constant parts; also called AB27_117) VH: QSLEESGGDLVKPGASLTLTCTASEFSFSNNYYICWVRQAPGKGLEWIACIYVHSGTTDYATWAKGRFTISRTSSTTVTLQMTSLTVADTATYFCARGRSGYYADAFDTWGPGTLVTVSS VL: ALDMTQTPSPVSAAVGGTVTINCQASQSVYNNNNLAWYQQKPGQPPKLLIYLASNLASGVPSRFKGSGSGTQFTLTISEIQSDDAATYYCQGTDSSSGWEHAFGGGTEVVVK"
3.44,1.28,0.412,275,"P018.S.03.A.G02 (antibody, V domains shown, V regions on human Ig constant parts; also called AB27_56) VH: QSLEESGGDLVKPGASLTLTCTASGFSFSSGYDMCWVRQAPGKGLEWIACIYAGSNNNTYYASWAKGRFTISKTSSTTVTLQVASLTAADTATYFCARAAGGYADYAYVMGDYFNFWGPGTLVTVSS VL: AYDMTQTPASVEVAVGGTVTIKCQASEDIYSILAWYQQKPGQRPKGLIYSASTLDSGVPLRFSGSGSGTEFTLTISGVQSDDAATYYCQQGYSSSNVDNVFGGGTEVVVK"
3.42,2.29,0.412,443,"P018.S.10.A.H01 (antibody, V domains shown, V regions on human Ig constant parts; also called AB27_184) VH: QEQLEESGGDLVKPGASLTLTCTASGFSFSSDYDMCWVSQAPGKGLEWIACIIGGSSDSTWYASWAKGRFTISKTSSTTVTLQVTGLTAADTATYFCARNVGFSYYDLWGPGTLVTVSS VL: AQVLTQTPSPVSAAVGGTVTINCQASQSLYNNKNLAWYQQKPGQPPKLLIYYASTLASGVSSRFKGSGSGTQFTLTISGVQSDDAATYYCQGEFSCSSGDCFAFGGGTEVVVK"
3.45,1.65,0.302,300,"P018.S.07.A.C04 (antibody, V domains shown, V regions on human Ig constant parts; also called AB27_120) VH: QEQLVESGGGLVQPEGSLTLTCTASGFSFSSRFWICWVRQAPGKGLEWIACIYGGSTSATYDASWAKGRFTISKTSSTTVTLQMTSLTAADTATYFCTRLPTYDAYVFNLWGPGTLVTVSS VL: AIVMTQTPSSKSVPVGATATINCQASESVFSNNYLSWYQQKPGRSPKLLIYEASKLASGVPSRFSGSGSGTQFTLTISDVVSDDAATYYCGGYKSNNVDGYAFGGGTEVVVK"
3.42,1.25,0.137,408,"P018.S.10.A.G05 (antibody, V domains shown, V regions on human Ig constant parts; also called AB27_183) VH: QSVEESGGRLVTPGTPLTLTCTVSGFSLNNAHMCWVRQAPGKGLEWIGIIGASGSTYYASWAKGRFTISKTSTTVDLKMTSLTTEDTATYFCGRTDVGYTTANLWGQGTLVTVSS VL: DVVMTQTPASVSAAVGGTVTIKCQASQTISSYLSWYQQKPGQPPKRLIYSASTLASGVSSRFKGSGSGTQFTLTISDLESADAATYYCQAYDTTSGTDLWAFGGGTEVVVK"
3.45,2.3,1.94,219,"P018.S.09.A.C06 (antibody, V domains shown, V regions on human Ig constant parts; also called AB27_149) VH: QSVEESGGRLVTPGTPLTLTCTVSGFSLSTYAMGWVRQAPGKGLEWIGIIYTGGSTYYASWAEGRFTISKTSTTVDLKITSPTPEDTATYFCTRDLGATYDYFDLWGQGTLVTVSS VL: AYDMTQTPASVEVAVGGTVTIKCQASQSISTALAWYQQKPGQRPKLLIYDTSDLASGVPSRFSGSGSGTEFTLTISGVESADAATYYCQQGYRHTNVDNPFGGGTGVVVK"
3.45,1.4,0.448,291,"P018.S.01.A.E06 (antibody, V domains shown, V regions on human Ig constant parts; also called AB27_18) VH: QSLEESGGDLVKPGASLTLTCTASGIDFSSSYYMCWVRQAPGKGLEWIGCIATGGGNTYYATWAKGRFTFSETSSTTVTLQMTSLTVADTATYFCARTYPSMWYFNLWGPGTLVTVSS VL: DVVMTQTPASVSEPVGGTVTIKCQASQSIGFNLAWYQQKPGQPPNLLIYGVSTLTSGVSSRFKGSGSGTQFTLTISDLESADAATYYCQSFYAGSSAFGGGTEVVVK"
3.42,2.05,0.495,326,"P018.S.01.A.F02 (antibody, V domains shown, V regions on human Ig constant parts; also called AB27_19) VH: QQQLVESGGGLVRPGASLTLTCKASGFSFSSGYYVCWVRQAPGKGLEWIACIFAGSGGGAGYATWAKGRFTISKTSSTTVTLQMTSLTAADTATYFCARPLSGYAYGMDLWGPGTLVTVSL VL: DVVMTQTPASVSEPVEGTVTIKCQASQTISNYLAWYQQKPGQPPKLLIYGASTLESGVSSRFKGSGSGTQFTLTIYDLESADAATYYCQCTYDGSSDVGGAFGGGTEVVVK"
3.48,1.57,0.451,335,"P018.S.04.A.G04 (antibody, V domains shown, V regions on human Ig constant parts; also called AB27_78) VH: QSLEESGGRLVTPGTPLTLTCTASGFTISSHHVTWVRQAPGEGLEWIGVIYPSGTTYYASWAKGRFTISRTSTTVDLKMTSLTIEDTATYFCVRDVGYFTLWGQGTLVTVSS VL: AQVLTQTPSPVSAAVGGTVTISCQSSQSVGGNNWLAWYQQKLGQPPKLLIYYASTLASGVPPRFSGSGSGTQFTLTISEVQSDDSATYYCQGYYSDVTNAFGGGTEVVVK"
3.42,1.35,0.294,335,"P018.S.04.A.D02 (antibody, V domains shown, V regions on human Ig constant parts; also called AB27_71) VH: QSLEESGGRLVTPGTPLTLTCTASGFSLSTYAMGWVRQAPGEGLEWIGNINTDSGDTWYARWAKGRFTISTTSSTTVDLKITSPTIEDTATYFCARNPGDDVNLWGQGTLVTVSS VL: AQVLTQTPSPVSAAVGDTVTINCQASQSVYNNNDLAWFQQKPGQPPKLLIYRTSILASGVPSRFKGSGSGTQFTLTISDLESDDAATYYCQGYYSGVIYVFGGGTEVVVK"
3.46,1.22,0.736,276,"P018.S.03.A.F02 (antibody, V domains shown, V regions on human Ig constant parts; also called AB27_53) VH: QSVEESGGRLVTPGTPLTLTCTVSGFSLSSNAMTWVRQAPGKGLEWIGFINTGGSTYYASWAKGRFTISKTSTTVDLKITSPTTEDTATYFCARDVGDSRGYYWGLWGQGTLVTVSS VL: AYDMTQTPASVPAAVGGTVTIKCQASEDIYSLLAWYQQKPGQPPKLLIYDASDLASGVPSRFRGSGSGTDYTLTISGVESADAATYYCQQGYTTYTTVDNIFGGGTEVVVK"
3.41,1.86,0.576,387,"P018.S.06.A.A03 (antibody, V domains shown, V regions on human Ig constant parts; also called AB27_96) VH: QSVEESGGRLVTPGTPLTLTCTVSGFSLSSNAMTWVRQAPGKGLEWIGFINTGSSTYYASWAKGRFTISKTSTTVDLKITSPTTEDTATYFCARDADDSRGYYWGLWGQGTLVTVSS VL: AYDMTQTPASVPAAVGGTVTIKCQASEDIYSLLAWYQQKPGQPPKLLIYDASDLASGVPSRFRGSGSGTDYTLTISGVESADAATYYCQQGYTTYTTVDNIFGGGTEVVVK"
3.44,2.2,0.651,373,"P018.S.03.A.A02 (antibody, V domains shown, V regions on human Ig constant parts; also called AB27_41) VH: QSVEESGGRLVTPGTPLTLTCTVSGFSLSSYDMTWVRQAPGEGLEWIGYINTDTTTYYASWAKGRFTISRTSTTVDLEITSPTTEDTATYFCARGNDPIYIDLWGQGTLVTVSS VL: AAVLTQTPSPVSAAVGGTVSISCQSSKSVINNNWLGWYQQKPGQPPKLLISYASTLASGVPSRFSGSGSGTQFTLTISDVQSDDAATYYCAGAYSPDSENAFGGGTEVVLK"
